Source: US20240343803A1 (SHANDONG SIMCERE BIOPHARMACEUTICAL, published 2024)

T1: human PVRIG-his (AcroBiosystems, Cat NO. PVG-H52H4) (human, UniProt Q6DKI7 41-171, limits assumed)
T1 construct: treated as the same protein; also called human PVRIG-His protein; Human PVRIG-His, Acro C227P1-9ARF1-T4
T1 sequence (looked up): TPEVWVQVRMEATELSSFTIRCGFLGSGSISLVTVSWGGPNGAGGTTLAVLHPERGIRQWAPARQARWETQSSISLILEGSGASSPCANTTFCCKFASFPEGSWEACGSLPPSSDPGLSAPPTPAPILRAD

T2: human PVRIG-mFc protein (Acro, PVG-H5253) (human, UniProt Q6DKI7 41-171, limits assumed)
T2 construct: bought reagent; also called PVRIG-ECD-mFc
T2 sequence (looked up): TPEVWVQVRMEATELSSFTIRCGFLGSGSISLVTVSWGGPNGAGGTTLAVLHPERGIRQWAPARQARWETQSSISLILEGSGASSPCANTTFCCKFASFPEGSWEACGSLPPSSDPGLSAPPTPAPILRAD

T3: human PVRIG-his (AcroBiosystems, Cat NO. PVG-H52H4) (human, UniProt Q6DKI7 41-171, limits assumed)
T3 construct: also called human PVRIG protein
T3 sequence (looked up): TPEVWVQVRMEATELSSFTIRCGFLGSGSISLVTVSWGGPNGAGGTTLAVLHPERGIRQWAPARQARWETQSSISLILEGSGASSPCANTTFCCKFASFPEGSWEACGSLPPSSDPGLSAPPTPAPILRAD

T4: cynomolgus monkey PVRIG (Novoprotein, Cat NO. C09B) (cynomolgus monkey, UniProt A0A2K5WVV8 41-171)
T4 construct: also called cynomolgus monkey PVRIG protein
T4 sequence: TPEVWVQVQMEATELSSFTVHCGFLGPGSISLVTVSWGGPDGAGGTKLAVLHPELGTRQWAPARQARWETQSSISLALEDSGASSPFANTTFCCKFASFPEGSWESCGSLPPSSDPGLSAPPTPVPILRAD

T5: human PVRIG on FlpinCHO-PVRIG cells (human, UniProt Q6DKI7 41-326)
T5 construct: whole, on cells
T5 sequence (looked up): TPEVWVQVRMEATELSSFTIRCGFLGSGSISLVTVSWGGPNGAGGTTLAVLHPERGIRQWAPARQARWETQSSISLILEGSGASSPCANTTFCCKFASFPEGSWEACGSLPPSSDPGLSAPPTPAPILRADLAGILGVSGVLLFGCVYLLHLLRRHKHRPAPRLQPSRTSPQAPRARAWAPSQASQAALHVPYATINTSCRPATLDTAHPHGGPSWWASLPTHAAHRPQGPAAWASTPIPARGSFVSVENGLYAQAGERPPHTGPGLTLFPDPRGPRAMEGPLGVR


Tests used:
[1] = molecular target: T1, human PVRIG-his (AcroBiosystems, Cat …); experiment: competition ELISA on coated human PVRIG-his; blocked ligand human PVRL2-mFc
Procedure: (§1) The ELISA plate was pre-coated with 100 μL/well of 0.5 μg/mL human PVRIG-his protein (AcroBiosystems, Cat NO. PVG-H52H4). The tested anti-PVRIG antibodies were diluted from the highest concentration of 16 nM (two-fold concentration). The diluted antibodies were mixed with 18 ng/ml human PVRL2-mFc (AcroBiosystems, Cat NO. CD2-H5257) in equal volume, added into the plate (100 μL/well), and incubated with shaking at room temperature for 2.0 hours. […] A HRP substrate, TMB (Thermo, Cat NO. 34029) was added into wells after washing the plate again for color development. After adding a termination solution to terminate the reaction, the absorbance value was read by a microplate reader (MD i3×). An inhibiting curve was drawn with concentration of antibodies as the abscissa and the corresponding OD value as the ordinate. The IC50 value was calculated by using a Four Parameter Logistic Fit (GraphPadPrism9). The smaller the IC50 value, the stronger the ability of the antibodies inhibits the binding between PVRIG and PVRL2. The positive and negative controls are the same as in Example 8.

[2] = molecular target: T2, human PVRIG-mFc protein (Acro, …); experiment: competition FACS; blocked: human PVRIG-mFc binding to CHO-K1-CD112 cells
Procedure: After incubation, the cells were added with staining buffer (2% FBS+PBS) to stop staining, centrifuged at 350×g to remove the supernatant, washed twice and resuspended with staining buffer to a density of 1×10⁶ cells/mL. The cells were plated into a 96-well plate (50 μL of cell suspension per well) for further use. A working solution of human PVRIG-mFc protein (Acro, PVG-H5253) prepared with staining buffer, 1 μg/mL (four-fold concentration), was added into a 96-well plate (50 μL PVRIG-mFc working solution per well). […] The diluted antibodies were added to the well containing 50 μL of PVRIG-mFc. The plate was placed on a microplate shaker at 400 rpm for 1 minute to fully mix the antibodies and PVRIG-mFc proteins, and then incubated at 4° C. for 30 minutes. After the incubation, the cell suspension prepared above (100 μL) was added into the wells, gently mixed with the pipette tip and incubated at 4° C. for 30 minutes. After the incubation, the cells were washed twice with staining buffer (200 μL per well) and centrifuged at 350×g for 5 minutes to discard the supernatant. The PE goat anti-mouse IgG Fc antibody (Biolegend, 405337) was diluted 250 times with staining buffer, added into the washed wells (100 μL per well), mixed well, and stained at 4° C. for 30 minutes. After staining, the cells were washed twice with staining buffer, finally resuspended with 200 μL staining buffer and analyzed by flow cytometry (BD, Canto II). The weaker the fluorescence signal, the stronger the ability of the antibodies blocks the binding of CHO-K1 human CD112 cells to the PVRIG-mFc protein. An antibody binding curve was drawn with concentration of antibodies as the abscissa and the corresponding Mean Fluorescence Intensity (MFI) as the ordinate. The IC50 value of the antibodies and the AUC value of the binding curve were calculated by using a Four Parameter Logistic Fit (GraphPadPrism9). The smaller the IC50 value and AUC value, the stronger the ability of the antibodies competes with CHO-K1-CD112 cells to bind to human PVRIG-mFc protein.

[3] = molecular target: T3, human PVRIG-his (AcroBiosystems, Cat …); experiment: competition ELISA, PVRIG-His coated, competitor human PVRL2-mFc; design: AUC: unit not given here
Procedure: as §1
The methods refer to Example 11. The inhibiting activity of the humanized antibodies was normalized to the corresponding parental antibodies. If the percentage value is higher than 100%, the inhibiting effect of humanized antibodies is better than that of parental antibodies.

[4] = molecular target: T4, cynomolgus monkey PVRIG (Novoprotein, …); experiment: ELISA, antigen coated
Procedure: (§2) The ELISA plate was pre-coated with 100 μL/well of 0.5 μg/mL human PVRIG-his (AcroBiosystems, Cat NO. PVG-H52H4) or cynomolgus monkey PVRIG (Novoprotein, Cat NO. C09B). The tested anti-PVRIG humanized antibodies were serially diluted (initial concentration 3 nM, 3-fold serial dilution), added into the plate (100 μL/well) and incubated with shaking at room temperature for 1.5 hours. […] A HRP substrate, TMB (Thermo, Cat NO. 34029) was added into wells after washing the plate again for color development. After adding a termination solution to terminate the reaction, the absorbance value was read by a microplate reader (MD i3×). An antibody binding curve was drawn with concentration of antibodies as the abscissa and the corresponding OD value as the ordinate. The EC50 value was calculated by using a Four Parameter Logistic Fit (GraphPadPrism9). The smaller the EC50 value, the stronger the ability of the antibodies binds to human or cynomolgus monkey PVRIG. The binding effect of the humanized antibodies was normalized to the corresponding parental antibodies. If the percentage value is higher than 100%, the binding effect of humanized antibodies is better than that of parental antibody.

[5] = molecular target: T3, human PVRIG-his (AcroBiosystems, Cat …); experiment: ELISA, antigen coated
Procedure: as §2

[6] = molecular target: T5, human PVRIG on FlpinCHO-PVRIG cells; experiment: FACS, FlpinCHO-PVRIG cells
Procedure: The Ham's F12 (Gibico, 21127-022) complete medium containing 10% FBS was then added to terminate the digestion and acquire cell suspension. After counting with a cell counter (Beckman Coulter, Vi-CELL), an appropriate amount of cell suspension was centrifuged at 350×g to remove the supernatant, washed twice with PBS, stained with Zombie violet (Biolegend, 423114) and incubated at room temperature for 20 minutes. After incubation, the cells were added with staining buffer (2% FBS+PBS) to stop staining, centrifuged at 350×g to remove the supernatant, washed twice and resuspended with staining buffer to a density of 2×10⁶ cells/mL. The cells were plated into a 96-well plate (50 μL of cell suspension per well) for further use. The antibodies were diluted from the highest concentration of 46 nM (two-fold concentration) with staining buffer by 3.3-fold serial dilution. The diluted antibodies were added to the well containing 50 μL of cell suspension. The plate was placed on a microplate shaker at 400 rpm for 1 minute to fully mix the antibodies and cells, and then incubated at 4° C. for 30 minutes. After the incubation, the cells were washed twice with staining buffer (200 μL per well) and centrifuged at 350×g for 5 minutes to discard the supernatant. The PE goat anti-human IgG Fc antibody (ebioscience, 12-4998-82) was diluted 250 times with staining buffer, added into the washed wells (100 μL per well), mixed well, and stained at 4° C. for 30 minutes. After staining, the cells were washed twice with staining buffer, finally resuspended with 200 μL staining buffer and analyzed by flow cytometry (BD, Canto II). The stronger the signal, the stronger the ability of the antibodies binds to PVRIG. An antibody binding curve was drawn with concentration of antibodies as the abscissa and the corresponding Mean Fluorescence Intensity (MFI) as the ordinate. The AUC value of the curve was calculated by using a Four Parameter Logistic Fit (GraphPadPrism9). The stronger the AUC value, the stronger the ability of the antibodies binds to FlpinCHO-PVRIG and FlpinCHO-cyno PVRIG. […] The binding activity of the antibodies was normalized to the positive control COM701-hIgG1 and SRF813-hIgG1.

Row | IC50 (read off the curve) [1] [nM] | IC50 (read off the curve) [2] [nM] | Binder | further results
1 | ~1 | ~1 | PVRIG-A60 (VHH, tested as VHH-hinge-CH2-CH3 (human IgG1-Fc); not shown: human IgG1 hinge-CH2-CH3) VHH: QVQLVESGGGLVQSGGSLRLSCAASGRTRSMYVMGWFRQAPGKEREFVGRIKWSGDTTYTSYADFVKGRFTLYGNQARNTVYLQMNSLKPEDAAVYYCNLRRLDGVNYWGKGTLVTVSS | 
2 | ~1 | ~1 | PVRIG-A35 (VHH, tested as VHH-hinge-CH2-CH3 (human IgG1-Fc); not shown: human IgG1 hinge-CH2-CH3) VHH: EVQVVESGGGLVQSGGSLRLSCAASGRTRSMYVMGWFRQAPGKEREFVGRIKWSGDTTYTSYADFVKGRFTLYGNQARNTVYLQMNSLKPEDTAVYYCNGRSRFNVINAWGTGTLVTVAS | 
3 | ~1 | ~1 | PVRIG-A43 (VHH, tested as VHH-hinge-CH2-CH3 (human IgG1-Fc); not shown: human IgG1 hinge-CH2-CH3) VHH: QVQLVESGGGLVQSGGSLRLSCAASGRTRSMYVMGWFRQAPGKEREFVGRIKWSGDTTYTSYADFVKGRFTLYGNQARNTVYLQMNSLKVEDTAVYYCAGRVVPLPSRQRDRYDYWGQGTQVTVSS | 
4 | ~2 | ~1 | PVRIG-A15 (VHH, tested as VHH-hinge-CH2-CH3 (human IgG1-Fc); not shown: human IgG1 hinge-CH2-CH3) VHH: QVQLVESGGGLVQAGGSLRLSCVASGRTFSANTMAWFRQAPGKEREFVAYTRWTDDNTDYASYADFVKGRFTAFRDNTRNTMYLQMNRLRPEDTAVYYCAAATTRGTYYSAGDYNSWGQGTQVTVSS | 
5 | ~1 | ~1 | PVRIG-A104 (VHH, tested as VHH-hinge-CH2-CH3 (human IgG1-Fc); not shown: human IgG1 hinge-CH2-CH3) VHH: EVQVVESGGGLVQAGGSLRLSCAASGRTRSMYVMGWFRQAPGKEREFVGRIKWSGDTTYTSYADFVKGRFTLYGNQARNTVYLQMNSLKPEDTAVYYCYRRSWTNTKLYWGKGIQVTVSS | 
6 | ~1 | ~0.8 | PVRIG-A75 (VHH, tested as VHH-hinge-CH2-CH3 (human IgG1-Fc); not shown: human IgG1 hinge-CH2-CH3) VHH: QLQLVESGGGLVQSGGSLRLSCAASGRTRSMYVMGWFRQAPGKEREFVGRIKWSGDTTYTSYADFVKGRFTLYGNQARNTVYLQMNSLKPEDTAVYSCAASKFPVSGVPEHYDYWGQGTQVTVSS | 
7 |  |  | PVRIG-A105-H3a (Fc fusion, humanized variant of PVRIG-A105; also called A105.VH3a; not shown: constant part not restated for the humanized forms; parents are VHH-hinge-CH2-CH3 of human IgG1; detected by anti-human) EVQLVESGGGLVQPGGSLRLSCAASGRTFDRHTMTWFRQAPGKEREFVATASRIPGDTYYVDSVKGRFTISRDNAKNSVYLQMNSLRAEDTAVYYCAATSAYSSEVDSYEKGSWYDNWGQGTMVTVSS | % relative activity (AUC) parental antibody/test antibody [3]: 47.2%; AUC [3]: 5.37; % relative activity parental antibody/tested antibody [4]: 2.53%; EC50 [4]: 1.27 nM; % relative activity parental antibody/tested antibody [5]: 0.99%; EC50 [5]: 7.41 nM; AUC % to COM701-hIgG1 [6]: 15.9%; AUC % to SRF813-hIgG1 [6]: 23.9%; AUC % to parental Ab [6]: 12.8%
8 | ~2 | ~1 | PVRIG-A30 (VHH, tested as VHH-hinge-CH2-CH3 (human IgG1-Fc); not shown: human IgG1 hinge-CH2-CH3) VHH: QVQLVESGGGLVQPGGSLRLSCAASGRTDSMNVMGWFRRAPGKEREFVARIKWNGDTTYTAYADFLKGRFTLYGAVARNRVYLQMNSLQPEDTAVYYCAAGEVSGSSYSPDYGMHYWGKGTLVTVSS | 
9 | ~1 | ~1 | PVRIG-A113 (VHH, tested as VHH-hinge-CH2-CH3 (human IgG1-Fc); not shown: human IgG1 hinge-CH2-CH3) VHH: QLQLVESGGGLVQSGGSLRLSCAASGRTRSMYVMGWFRQAPGKEREFVGRIKWSGDTTYTSYADFVKGRFTLYGNQARNTVYLQMNSLKPEDTAVYYCAALPSDYDYRAASYGVDYWGKGTLVTVSS | 
